Reference: patent US20220074941A1, “HSP90 COMBINATION THERAPY” (Sloan-Kettering Institute for Cancer Research, priority 2011, published 2022)

B1: MLF2 (protein, UniProt Q15773 1-248, looked up)
Myeloid leukemia factor 2: MFRFMRDVEPEDPMFLMDPFAIHRQHMSRMLSGGFGYSPFLSITDGNMPGTRPASRRMQQAGAVSPFGMLGMSGGFMDMFGMMNDMIGNMEHMTAGGNCQTFSSSTVISYSNTGDGAPKVYQETSEMRSAPGGIRETRRTVRDSDSGLEQMSIGHHIRDRAHILQRSRNHRTGDQEERQDYINLDESEAAAFDDEWRRETSRFRQQRPLEFRRLESSGAGGRRAEGPPRLAIQGPEDSPSRQSRRYDW
B2: ZBED1 (protein, UniProt O96006 1-694, looked up)
E3 SUMO-protein ligase ZBED1: MENKSLESSQTDLKLVAHPRAKSKVWKYFGFDTNAEGCILQWKKIYCRICMAQIAYSGNTSNLSYHLEKNHPEEFCEFVKSNTEQMREAFATAFSKLKPESSQQPGQDALAVKAGHGYDSKKQQELTAAVLGLICEGLYPASIVDEPTFKVLLKTADPRYELPSRKYISTKAIPEKYGAVREVILKELAEATWCGISTDMWRSENQNRAYVTLAAHFLGLGAPNCLSMGSRCLKTFEVPEENTAETITRVLYEVFIEWGISAKVFGATTNYGKDIVKACSLLDVAVHMPCLGHTFNAGIQQAFQLPKLGALLSRCRKLVEYFQQSAVAMYMLYEKQKQQNVAHCMLVSNRVSWWGSTLAMLQRLKEQQFVIAGVLVEDSNNHHLMLEASEWATIEGLVELLQPFKQVAEMLSASRYPTISMVKPLLHMLLNTTLNIKETDSKELSMAKEVIAKELSKTYQETPEIDMFLNVATFLDPRYKRLPFLSAFERQQVENRVVEEAKGLLDKVKDGGYRPAEDKIFPVPEEPPVKKLMRTSTPPPASVINNMLAEIFCQTGGVEDQEEWHAQVVEELSNFKSQKVLGLNEDPLKWWSDRLALFPLLPKVLQKYWCVTATRVAPERLFGSAANVVSAKRNRLAPAHVDEQVFLYENARSGAEAEPEDQDEGEWGLDQEQVFSLGDGVSGGFFGIRDSSFL
B3: MALT1 (protein, UniProt Q9UDY8 2-824, looked up)
Mucosa-associated lymphoid …: SLLGDPLQALPPSAAPTGPLLAPPAGATLNRLREPLLRRLSELLDQAPEGRGWRRLAELAGSRGRLRLSCLDLEQCSLKVLEPEGSPSLCLLKLMGEKGCTVTELSDFLQAMEHTEVLQLLSPPGIKITVNPESKAVLAGQFVKLCCRATGHPFVQYQWFKMNKEIPNGNTSELIFNAVHVKDAGFYVCRVNNNFTFEFSQWSQLDVCDIPESFQRSVDGVSESKLQICVEPTSQKLMPGSTLVLQCVAVGSPIPHYQWFKNELPLTHETKKLYMVPYVDLEHQGTYWCHVYNDRDSQDSKKVEIIIGRTDEAVECTEDELNNLGHPDNKEQTTDQPLAKDKVALLIGNMNYREHPKLKAPLVDVYELTNLLRQLDFKVVSLLDLTEYEMRNAVDEFLLLLDKGVYGLLYYAGHGYENFGNSFMVPVDAPNPYRSENCLCVQNILKLMQEKETGLNVFLLDMCRKRNDYDDTIPILDALKVTANIVFGYATCQGAEAFEIQHSGLANGIFMKFLKDRLLEDKKITVLLDEVAEDMGKCHLTKGKQALEIRSSLSEKRALTDPIQGTEYSAESLVRNLQWAKAHELPESMCLKFDCGVQIQLGFAAEFSNVMIIYTSIVYKPPEIIMCDAYVTDFPLDLDIDPKDANKGTPEETGSYLVSKDLPKHCLYTRLSSLQKLKEHLVFTVCLSYQYSGLEDTVEDKQEVNVGKPLIAKLDMHRGLGRKTCFQTCLMSNGPYQSSAATSGGAGHYHSLQDPFHGVYHSHPGNPSNVTPADSCHCSRTPDAFISSFAHHASCHFSRSNVPVETTDEIPFSFSDRLRISEK
B4: PRCC (protein, UniProt Q92733 1-491, looked up)
Proline-rich protein PRCC: MSLVAYASSDESEPDEAEPEPEEEEAVAPTSGPALGGLFASLPAPKGPALLPPPPQMLAPAFPPPLLLPPPTGDPRLQPPPPLPFGLGGFPPPPGVSPAEAAGVGEGLGLGLPSPRGPGLNLPPPIGGAGPPLGLPKPKKRKEPVKIAAPELHKGDSDSEEDEPTKKKTILQGSSEGTGLSALLPQPKNLTVKETNRLLLPHAFSRKPSDGSPDTKPSRLASKTKTSSLAPVVGTTTTTPSPSAIKAAAKSAALQVTKQITQEEDDSDEEVAPENFFSLPEKAEPPGVEPYPYPIPTVPEELPPGTEPEPAFQDDAANAPLEFKMAAGSSGAPWMPKPGDDYSYNQFSTYGDANAAGAYYQDYYSGGYYPAQDPALVPPQEIAPDASFIDDEAFKRLQGKRNRGREEINFVEIKGDDQLSGAQQWMTKSLTEEKTMKSFSKKKGEQPTGQQRRKHQITYLIHQAKERELELKNTWSENKLSRRQTQAKYGF
B5: CT45A5 (protein, UniProt P0DMU8 1-189, looked up)
Cancer/testis antigen family …: MTDKTEKVAVDPETVFKRPRECDSPSYQKRQRMALLARKQGAGDSLIAGSAMSKEKKLMTGHAIPPSQLDSQIDDFTGFSKDGMMQKPGSNAPVGGNVTSSFSGDDLECRETASSPKSQREINADIKRKLVKELRCVGQKYEKIFEMLEGVQGPTAVRKRFFESIIKEAARCMRRDFVKHLKKKLKRMI
B6: MOBKL3 (protein, UniProt Q96BX8 1-217, looked up)
MOB kinase activator 3A: MSNPFLKQVFNKDKTFRPKRKFEPGTQRFELHKKAQASLNAGLDLRLAVQLPPGEDLNDWVAVHVVDFFNRVNLIYGTISDGCTEQSCPVMSGGPKYEYRWQDEHKFRKPTALSAPRYMDLLMDWIEAQINNEDLFPTNVGTPFPKNFLQTVRKILSRLFRVFVHVYIHHFDRIAQMGSEAHVNTCYKHFYYFVKEFGLIDTKELEPLKEMTARMCH
B7: PSD4 (protein, UniProt Q8NDX1 1-1056, looked up)
PH and SEC7 domain-containing …: MMGDYRLPDHPQPMEILNLYLGDSLEPHPGECPRETCSHEDPPEPFEEQTWATDPPEPTRQNVPPWGSGVELTHLGSWVHQDGLEPCQEQTRATDPPESTRQDAPPWGSGVELTHLGSPSAQREHRQNTASPGSPVNSHLPGSPKQNRSTSTQVVFWAGILQAQMCVLDLEEELEKTEGLKAGLKCCLPTPPVDLPGDTGLHSSPPENEDSGEDSSEPEGEGQAWLREGTPDSSPQWGAEEESMFFSNPLFLASPCSENSASGECFSWGASDSHAGVRTGPESPATLEPPLPEDTVLWELESEPDLGDGAAISGHCTPPFPVPIYKPHSICWASVAAAEGAPAAPPGHGESEGDRLGPAPSAAPCVDEALTWESGCVGSDLGPAAHPVQPWASLSPEGWQRGGPFWPQVTLNSQDRDEREGGHPQESLPCTLAPCPWRSPASSPEPSSPESESRGPGPRPSPASSQEGSPQLQHHSSGILPKWTLDASQSSLLETDGEQPSSLKKKEAGEAPKPGEEVKSEGTARPAETGDVQPDIHLTSAEHENLRTPMNSSWLPGSPMPQAQSPEEGQRPPAGDKLANGVRNNKVAWNLASRLYRLEGFRKSEVAAYLQKNNDFSRAVAEEYLSFFQFGGQSLDRALRSFLQALVLSGETQERERILYQFSRRFHHCNPGIFPSVDSVHTLTCAIMLLNTDLHGQNIGKSMSCQEFITNLNGLRDGGNFPKELLKALYWSIRSEKLEWAVDEEDTARPEKAQPSLPAGKMSKPFLQLAQDPTVPTYKQGILARKMHQDADGKKTPWGKRGWKMFHTLLRGMVLYFLKQGEDHCLEGESLVGQMVDEPVGVHHSLATPATHYTKKPHVFQLRTADWRLYLFQAPTAKEMSSWIARINLAAATHSAPPFPAAVGSQRRFVRPILPVGPAQSSLEEQHRSHENCLDAAADDLLDLQRNLPERRGRGRELEEHRLRKEYLEYEKTRYETYVQLLVARLHCPSDALDLWEEQLGREAGGTREPKLSLKKSHSSPSLHQDEAPTTAKVKRNISERRTYRKIIPKRNRNQL
B8: ASCC2 (protein, UniProt Q9H1I8 1-757, looked up)
Activating signal …: MPALPLDQLQITHKDPKTGKLRTSPALHPEQKADRYFVLYKPPPKDNIPALVEEYLERATFVANDLDWLLALPHDKFWCQVIFDETLQKCLDSYLRYVPRKFDEGVASAPEVVDMQKRLHRSVFLTFLRMSTHKESKDHFISPSAFGEILYNNFLFDIPKILDLCVLFGKGNSPLLQKMIGNIFTQQPSYYSDLDETLPTILQVFSNILQHCGLQGDGANTTPQKLEERGRLTPSDMPLLELKDIVLYLCDTCTTLWAFLDIFPLACQTFQKHDFCYRLASFYEAAIPEMESAIKKRRLEDSKLLGDLWQRLSHSRKKLMEIFHIILNQICLLPILESSCDNIQGFIEEFLQIFSSLLQEKRFLRDYDALFPVAEDISLLQQASSVLDETRTAYILQAVESAWEGVDRRKATDAKDPSVIEEPNGEPNGVTVTAEAVSQASSHPENSEEEECMGAAAAVGPAMCGVELDSLISQVKDLLPDLGEGFILACLEYYHYDPEQVINNILEERLAPTLSQLDRNLDREMKPDPTPLLTSRHNVFQNDEFDVFSRDSVDLSRVHKGKSTRKEENTRSLLNDKRAVAAQRQRYEQYSVVVEEVPLQPGESLPYHSVYYEDEYDDTYDGNQVGANDADSDDELISRRPFTIPQVLRTKVPREGQEEDDDDEEDDADEEAPKPDHFVQDPAVLREKAEARRMAFLAKKGYRHDSSTAVAGSPRGHGQSRETTQERRKKEANKATRANHNRRTMADRKRSKGMIPS
B9: WASF2 (protein, UniProt Q9Y6W5 1-498, looked up)
Actin-binding protein WASF2: MPLVTRNIEPRHLCRQTLPSVRSELECVTNITLANVIRQLGSLSKYAEDIFGELFTQANTFASRVSSLAERVDRLQVKVTQLDPKEEEVSLQGINTRKAFRSSTIQDQKLFDRNSLPVPVLETYNTCDTPPPLNNLTPYRDDGKEALKFYTDPSYFFDLWKEKMLQDTKDIMKEKRKHRKEKKDNPNRGNVNPRKIKTRKEEWEKMKMGQEFVESKEKLGTSGYPPTLVYQNGSIGCVENVDASSYPPPPQSDSASSPSPSFSEDNLPPPPAEFSYPVDNQRGSGLAGPKRSSVVSPSHPPPAPPLGSPPGPKPGFAPPPAPPPPPPPMIGIPPPPPPVGFGSPGTPPPPSPPSFPPHPDFAAPPPPPPPPAADYPTLPPPPLSQPTGGAPPPPPPPPPPGPPPPPFTGADGQPAIPPPLSDTTKPKSSLPAVSDARSDLLSAIRQGFQLRRVEEQREQEKRDVVGNDVATILSRRIAVEYSDSEDDSSEFDEDDWSD

Columns and labels:
[1] = system: Hsp90 complexes in K562 cell extract; test: Nano-LC-MS/MS of PU-beads pull-downs; format: binding; conditions: protein identified in PU-beads pull-down of K562 cell extract, QSTAR-Elite QTof MS
Summary of the method: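 Lysates pre-cleared overnight at 4 °C with control beads, then pulled down with PU-beads or control beads; eluted proteins (2% SDS boil) gel-separated and analysed by nano LC-MS/MS on a QTof. Mascot identification (p<0.05), spectral counts and sequence coverage evaluated in Scaffold.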

[2] = system: Hsp90 complexes in Mia-PaCa-2 cell extract; test: Nano-LC-MS/MS of PU-beads pull-downs; format: binding, human; conditions: protein identified in PU-beads pull-down of Mia-PaCa-2 cell extract; QSTAR-Elite QTof MS
Summary of the method: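 Lysates pre-cleared overnight at 4 °C with control beads underwent PU-bead pull-down; bound proteins were SDS-eluted, gel-separated, digested and analyzed by nano-LC-MS/MS on a QTof. Identifications used significance p<0.05, 0.4 Da tolerances and one missed cleavage; unique peptide (spectral) counts and sequence coverage were reported.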

Molecule	Number of Assigned Spectra, K562 Prep 1 [1]	Number of Assigned Spectra, K562 Prep 2 [1]	Number of Assigned Spectra, Mia-Paca 2 [2]
B1	2	0	1
B2	2	0	0
B3	0	0	2
B4	2	0	0
B5	2	0	0
B6	0	0	1
B7	2	0	0
B8	0	0	1
B9	2	0	0
